For this data set, the system named is Escherichia coli TOP10. Put plainly: shrunken log2 fold change of peptide-encoding DNA abundance (4.5 h post-induction vs induction); higher = less antimicrobial activity (less host growth inhibition). The settings on record: time post-induction: 4.5 h; library: site-saturation at positions 5, 18, 19, 20.
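Also: peptides expressed intracellularly from a pBAD plasmid library in pooled LB shake-flask culture, induced with 0.3% L-arabinose, DNA abundance read by NGS, three biological replicates, DESeq2 with apeglm shrinkage.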

Turning to RRIRPRPPRLPRPRPRPFIEPRP, the “shrunken log2 fold change” value is -0.245.

For RRIRCRPPRLPRPRPRPSRDPRP, the “shrunken log2 fold change” value was 0.189.

RRIRVRPPRLPRPRPRPYQTPRP: the “shrunken log2 fold change” value is -0.0531.

In the case of RRIRPRPPRLPRPRPRPAQSPRP, the “shrunken log2 fold change” value worked out at 0.448.

Regarding RRIRQRPPRLPRPRPRPTHFPRP, the “shrunken log2 fold change” value is -0.0245.

On to RRIRERPPRLPRPRPRPGDAPRP, for which the “shrunken log2 fold change” value worked out at 0.106.

Consider RRIRHRPPRLPRPRPRPVRDPRP, for which the “shrunken log2 fold change” value stood at 0.298.

Regarding RRIRSRPPRLPRPRPRPNFKPRP, the “shrunken log2 fold change” value was -0.0661.

Take RRIRARPPRLPRPRPRPAWSPRP: the “shrunken log2 fold change” value amounted to 0.329.

Take RRIRGRPPRLPRPRPRPSCQPRP: the “shrunken log2 fold change” value worked out at 0.925.

Consider RRIRIRPPRLPRPRPRPYSWPRP, for which the “shrunken log2 fold change” value is -0.264.

With RRIRSRPPRLPRPRPRPTNVPRP, the “shrunken log2 fold change” value is -0.358.

As for RRIRTRPPRLPRPRPRPNMQPRP, the “shrunken log2 fold change” value is -0.223.

Regarding RRIRSRPPRLPRPRPRPMDSPRP, the “shrunken log2 fold change” value was -0.279.

RRIRVRPPRLPRPRPRPYFHPRP: the “shrunken log2 fold change” value is -0.738.

On to RRIRTRPPRLPRPRPRPMWAPRP, for which the “shrunken log2 fold change” value was found to be 0.0473.

On to RRIRSRPPRLPRPRPRPTCAPRP, for which the “shrunken log2 fold change” value is 0.301.

RRIRMRPPRLPRPRPRPLCVPRP: the “shrunken log2 fold change” value was 0.361.

As to RRIRHRPPRLPRPRPRPTDKPRP, the “shrunken log2 fold change” value was -0.185.

Take RRIRHRPPRLPRPRPRPLGMPRP: the “shrunken log2 fold change” value was -0.227.

For RRIRMRPPRLPRPRPRPADGPRP, the “shrunken log2 fold change” value was 0.19.

With RRIRVRPPRLPRPRPRPSKKPRP, the “shrunken log2 fold change” value was -0.0165.

With RRIRIRPPRLPRPRPRPNCLPRP, the “shrunken log2 fold change” value was -0.602.

For the sequence RRIRCRPPRLPRPRPRPQGQPRP, the “shrunken log2 fold change” value was found to be 0.155.

For RRIRRRPPRLPRPRPRPDNCPRP, the “shrunken log2 fold change” value is -0.113.

Regarding RRIRGRPPRLPRPRPRPRKFPRP, the “shrunken log2 fold change” value was 0.399.

For RRIRGRPPRLPRPRPRPDWRPRP, the “shrunken log2 fold change” value was 0.404.

RRIRGRPPRLPRPRPRPLEHPRP: the “shrunken log2 fold change” value was determined as 0.594.

As for RRIRGRPPRLPRPRPRPLCHPRP, the “shrunken log2 fold change” value amounted to 0.775.

In the case of RRIRMRPPRLPRPRPRPIAPPRP, the “shrunken log2 fold change” value amounted to 0.47.

As for RRIRVRPPRLPRPRPRPLMLPRP, the “shrunken log2 fold change” value was -0.202.

Consider RRIRQRPPRLPRPRPRPMAEPRP, for which the “shrunken log2 fold change” value was found to be 0.0238.

RRIRVRPPRLPRPRPRPLDHPRP: the “shrunken log2 fold change” value was -0.194.

On to RRIRFRPPRLPRPRPRPHAPPRP, for which the “shrunken log2 fold change” value is -0.062.

With RRIRCRPPRLPRPRPRPNIKPRP, the “shrunken log2 fold change” value was -0.647.

RRIRHRPPRLPRPRPRPASPPRP: the “shrunken log2 fold change” value came to 0.158.

RRIRQRPPRLPRPRPRPDFMPRP: the “shrunken log2 fold change” value is -0.316.

Turning to RRIRWRPPRLPRPRPRPKHRPRP, the “shrunken log2 fold change” value amounted to 0.149.

Regarding RRIRCRPPRLPRPRPRPTCGPRP, the “shrunken log2 fold change” value worked out at 0.111.

As for RRIRCRPPRLPRPRPRPNECPRP, the “shrunken log2 fold change” value was -0.37.

For RRIRFRPPRLPRPRPRPQGTPRP, the “shrunken log2 fold change” value is -0.068.

Consider RRIRCRPPRLPRPRPRPMMAPRP, for which the “shrunken log2 fold change” value stood at 0.184.

For the sequence RRIRRRPPRLPRPRPRPNIQPRP, the “shrunken log2 fold change” value was 0.0304.

For the sequence RRIRDRPPRLPRPRPRPHVTPRP, the “shrunken log2 fold change” value was -0.631.

RRIRVRPPRLPRPRPRPDFQPRP: the “shrunken log2 fold change” value is -0.163.

For RRIRRRPPRLPRPRPRPRMGPRP, the “shrunken log2 fold change” value is 0.136.

RRIRSRPPRLPRPRPRPFVTPRP: the “shrunken log2 fold change” value is -0.0434.

Take RRIRGRPPRLPRPRPRPDIAPRP: the “shrunken log2 fold change” value was determined as 0.782.

For RRIRHRPPRLPRPRPRPAHMPRP, the “shrunken log2 fold change” value was -0.0835.

For the sequence RRIRVRPPRLPRPRPRPGPRPRP, the “shrunken log2 fold change” value is 0.791.
